Some targets named below: BMP-2 A86P; BMP-2 L100K; BMP-2 N102D; BMP-2 S85R/A86P; BMP-2 S85R.
Test in all cases: SPR; BIACORE 2000; biotinylated ligand on a streptavidin-modified CM5 chip (about 200 RU); receptor ectodomain as analyte at 1, 2, 3, 5, 10, 20 and 50 uM; HBS500 (10 mM HEPES pH 7.4, 500 mM NaCl, 3.4 mM EDTA, 0.005% P20); apparent KD from the dose dependence of equilibrium binding
Background: SPR reads the build-up and loss of mass on a sensor chip optically.

The target in test [1] is BMP-2 variant L100K/N102D.

B1: ActR-IIBECD wildtype (activin type IIB receptor ectodomain) (receptor)
chain: SGRGEAETRECIYYNANWELERTNQSGLERCEGEQDKRLHCYASWRNSSGTIELVKKGCWLDDFNCYDRQECVATEENPQVYFCCCEGNFCNERFTHLPEPGGPEVTYEPPPTAPTLLT
As to B1, the rel. KD (against wildtype BMP-2 from E. coli with the same receptor) turned out to be 2.6 fold in the test with BMP-2 A86P; 0.15 fold with BMP-2 L100K; 7.8 fold with BMP-2 N102D; 1.4 fold with BMP-2 S85R/A86P; 1.3 fold with BMP-2 S85R. The Kd in test [1] was 0.14 µM.

B2: ActR-IIBECD L61A (receptor)
chain: SGRGEAETRECIYYNANWELERTNQSGLERCEGEQDKRLHCYASWRNSSGTIELVKKGCWADDFNCYDRQECVATEENPQVYFCCCEGNFCNERFTHLPEPGGPEVTYEPPPTAPTLLT
Consider B2, for which the Kd in test [1] amounted to 14 µM.

B3: ActR-IIBECD L61P (receptor)
chain: SGRGEAETRECIYYNANWELERTNQSGLERCEGEQDKRLHCYASWRNSSGTIELVKKGCWPDDFNCYDRQECVATEENPQVYFCCCEGNFCNERFTHLPEPGGPEVTYEPPPTAPTLLT
Consider B3, for which the Kd in test [1] is 160 µM.

B4: BMPR-II receptor ectodomain (receptor)
chain: SQNQERLCAFKDPYQQDLGIGESRISHENGTILCSKGSTCYGLWEKSKGDINLVKQGCWSHIGDPQECHYEECVVTTTPPSIQNGTYRFCCCSTDLCNVNFTENFPPPDTTPLSPPHSFNRDET
With B4, the rel. KD (against wildtype BMP-2 from E. coli with the same receptor) was found to be 0.5 fold with BMP-2 A86P; 1.3 fold with BMP-2 L100K; 0.96 fold in the test with BMP-2 N102D; 0.19 fold with BMP-2 S85R/A86P; 0.12 fold with BMP-2 S85R; 0.92 fold in test [1].
